Results reported in patent US20130280250A1.

What was measured:
CD20 (human) [1] = target: CD20 (human) (UniProt P11836); experiment: cell-based or functional assay
CD20 (human) [2] = target: CD20 (human) (UniProt P11836); experiment: flow cytometry on Daudi cells, PE-anti-Fab
CD20 (human) [3] = target: CD20 (human) (UniProt P11836); experiment: Scatchard analysis, radio-iodinated sample on Raji cells; apparent association constant
[4] = target: gp41 of HIV-1 6794 (HIV-1 6794); experiment: cell-based or functional assay
[5] = target: gp41 of HIV-1IIIB (HIV-1IIIB) (UniProt P03377); experiment: cell-based or functional assay

Row | Substance | EC50, inhibition of proliferation of Daudi cells (4-d MTS assay) (CD20 (human) [1]) | EC50, inhibition of proliferation of Raji cells (4-d MTS assay) (CD20 (human) [1]) | EC50, inhibition of proliferation of Ramos cells (4-d MTS assay) (CD20 (human) [1]) | EC50, viable cell counting assay, Ramos, 3 days (CD20 (human) [1]) | inhibition of cell proliferation at 0.5 nmol/L, viable cell counting, Raji and Ramos (CD20 (human) [1]) | greater fluorescence intensity than veltuzumab (PE-anti-Fab) (CD20 (human) [2]) | Ka (CD20 (human) [3]) | EC50 estimated, neutralization of HIV-1 6794 in PBMCs, 50TCID50 [4] | EC50 estimated, neutralization of HIV-1 6794 in PBMCs, 100TCID50 [4] | EC50 estimated, neutralization of HIV-1IIIB in Jurkat T cells, 50TCID50 [5] | EC50 estimated, neutralization of HIV-1IIIB in Jurkat T cells, 100TCID50 [5]
1 | Hex-hA20 (hexavalent anti-CD20 antibody, six Fabs with one Fc) | 0.15 nM | 0.064 nM | 0.15 nM | 0.17 nM | > 50% | 40 to 50% | 3.9e+08 M⁻¹ |  |  |  | 
2 | T20 HIV fusion inhibitor (enfuvirtide, FUZEON) (peptide) |  |  |  |  |  |  |  | 9 nM | 9 nM | 9 nM | 
3 | hLL2-(T20)4 |  |  |  |  |  |  |  | < 0.2 nM | < 0.2 nM | < 0.2 nM | 0.1 nM
